This assay deals with HLA-A*02:01 (Homo sapiens, UniProt P04439, D140Y/D185E/D98H/E176V/E277Q/G131W/G231S/I119V/I121R/I166T/I218V/L300P/L318F/N151K/N90K/P208A/P217A/Q86G/Q94H/R138H/R169H/T345S). Kind of assay: MHC binding assay (UV-ligand exchange, beta2m ELISA, peptide exchange yield). Particulars: binding of HLA-class I restricted peptides to HLA-A*02:01, ranged by peptide exchange yield (UV-ligand exchange, β2m ELISA). An outline of the steps: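 Readout is a β2m ELISA: stabilized complexes captured on streptavidin, detected with HRP-conjugated anti-β2m and TMB at 450 nm, reporting peptide exchange yield. Complexes come from UV-light cleavage of a conditional ligand in HLA-A*02:01 and replacement by the candidate peptide, samples diluted 100-fold.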

Take “73 (NIFDLQIYV; listed as Homo sapiens) [compound 73]”: the Peptide exchange result was “″+++″ (≥50% = +++)”. For “279 (ALWGGTQPLL; listed as Homo sapiens) [compound 279]” the value was “″++″ (≥20% = ++)”; for “289 (VLLEIEDLQV; listed as Homo sapiens) [compound 289]”, “″++++″ (≥75% = ++++)”. With “236 (GLLEAKVSL; listed as Homo sapiens) [compound 236]”, the Peptide exchange result is on record as “″+++″ (≥50% = +++)”. Take “164 (ALLPQPKNLTV; listed as Homo sapiens) [compound 164]”: the Peptide exchange entry is given as “″+++″ (≥50% = +++)”. In the case of “369 (GLFPEHLIDV; listed as Homo sapiens) [compound 369]”, the Peptide exchange entry is on record as “″+++″ (≥50% = +++)”. For “215 (QLINHLHAV; listed as Homo sapiens) [compound 215]” the value was “″+++″ (≥50% = +++)”. For “30 (LILDWVPYI; listed as Homo sapiens) [compound 30]” the value was “″+++″ (≥50% = +++)”; for “100 (YLLSTNAQL; listed as Homo sapiens) [compound 100]”, “″++++″ (≥75% = ++++)”. As to “303 (AILPQLFMV; listed as Homo sapiens) [compound 303]”, the Peptide exchange result is listed as “″++++″ (≥75% = ++++)”. On to “588 (SLLPLSHLV; listed as Homo sapiens) [compound 588]”, for which the Peptide exchange result was “″+++″ (≥50% = +++)”. For “297 (VLADIELAQA; listed as Homo sapiens) [compound 297]” the value was “″+++″ (≥50% = +++)”; for “565 (ALQETPTSV; listed as Homo sapiens) [compound 565]”, “″++″ (≥20% = ++)”; for “243 (LLLNELPSV; listed as Homo sapiens) [compound 243]”, “″+++″ (≥50% = +++)”. For “361 (ALYELEGTTV; listed as Homo sapiens) [compound 361]” the value was “″+++″ (≥50% = +++)”; for “577 (VMFEDGVLMRL; listed as Homo sapiens) [compound 577]”, “″+++″ (≥50% = +++)”.

Regarding “163 (ALDEMGDLLQL; listed as Homo sapiens) [compound 163]”, the Peptide exchange result was “″+++″ (≥50% = +++)”. On to “217 (ALIHPVSTV; listed as Homo sapiens) [compound 217]”, for which the Peptide exchange result was “″++″ (≥20% = ++)”. Consider “12 (SLWPDPMEV; listed as Homo sapiens) [compound 12]”, for which the Peptide exchange entry was “″+++″ (≥50% = +++)”. Take “193 (QLLDADGFLNV; listed as Homo sapiens) [compound 193]”: the Peptide exchange result is on record as “″+++″ (≥50% = +++)”. In the case of “313 (VLFDDELLMV; listed as Homo sapiens) [compound 313]”, the Peptide exchange entry is listed as “″+++″ (≥50% = +++)”. Consider “465 (QLCDLNAEL; listed as Homo sapiens) [compound 465]”, for which the Peptide exchange result is on record as “″+++″ (≥50% = +++)”.

As to “471 (YLYNNMIAKI; listed as Homo sapiens) [compound 471]”, the Peptide exchange entry was “″+++″ (≥50% = +++)”. For the substance “386 (ILFRYPLTI; listed as Homo sapiens) [compound 386]”, the Peptide exchange result is listed as “″+++″ (≥50% = +++)”. With “307 (ALPVSLPQI; listed as Homo sapiens) [compound 307]”, the Peptide exchange result is recorded as “″+++″ (≥50% = +++)”. “104 (STMEQNFLL; listed as Homo sapiens) [compound 104]”: the Peptide exchange result was “″++++″ (≥75% = ++++)”. As for “121 (GVVDPRAISVL; listed as Homo sapiens) [compound 121]”, the Peptide exchange result is on record as “″++″ (≥20% = ++)”. The result for “589 (KLYPQLPAEI; listed as Homo sapiens) [compound 589]” reads “″+++″ (≥50% = +++)”; that for “598 (FLFPHSVLV; listed as Homo sapiens) [compound 598]”, “″+++″ (≥50% = +++)”; that for “475 (LLLNEEALAQI; listed as Homo sapiens) [compound 475]”, “″+++″ (≥50% = +++)”. As to “561 (YLQLTQSEL; listed as Homo sapiens) [compound 561]”, the Peptide exchange result is reported as “″+++″ (≥50% = +++)”.

On to “179 (KVLNELYTV; listed as Homo sapiens) [compound 179]”, for which the Peptide exchange entry was “″+++″ (≥50% = +++)”. For “531 (YTLPIASSIRL; listed as Homo sapiens) [compound 531]” the value was “″+++″ (≥50% = +++)”; for “510 (KLYSVVSQL; listed as Homo sapiens) [compound 510]”, “″++″ (≥20% = ++)”. For “570 (ALANQIPTV; listed as Homo sapiens) [compound 570]”, the Peptide exchange entry is on record as “″++″ (≥20% = ++)”. As for “196 (YLYSVEIKL; listed as Homo sapiens) [compound 196]”, the Peptide exchange result was “″++++″ (≥75% = ++++)”. In the case of “349 (SLTEYLQNV; listed as Homo sapiens) [compound 349]”, the Peptide exchange entry is “″++++″ (≥75% = ++++)”.

For “449 (KLAEGLDIQL; listed as Homo sapiens) [compound 449]”, the Peptide exchange entry is reported as “″+++″ (≥50% = +++)”.

For “459 (ALITEVVRL; listed as Homo sapiens) [compound 459]”, the Peptide exchange entry is reported as “″++″ (≥20% = ++)”. On to “408 (VLDDSIYLV; listed as Homo sapiens) [compound 408]”, for which the Peptide exchange entry is “″++″ (≥20% = ++)”. For the substance “621 (VLMDRLPSLL; listed as Homo sapiens) [compound 621]”, the Peptide exchange result is on record as “″++++″ (≥75% = ++++)”. Turning to “560 (ALWDIETGQQTTT; listed as Homo sapiens) [compound 560]”, the Peptide exchange result is given as “″+++″ (≥50% = +++)”. For “102 (YLFESEGLVL; listed as Homo sapiens) [compound 102]” the value was “″+++″ (≥50% = +++)”; for “18 (YLVAKLVEV; listed as Homo sapiens) [compound 18]”, “″++″ (≥20% = ++)”; for “548 (ALWENPESGEL; listed as Homo sapiens) [compound 548]”, “″++″ (≥20% = ++)”. Consider “208 (KISPVTFSV; listed as Homo sapiens) [compound 208]”, for which the Peptide exchange result is listed as “″+++″ (≥50% = +++)”. In the case of “429 (GLVNDLARV; listed as Homo sapiens) [compound 429]”, the Peptide exchange entry was “″++″ (≥20% = ++)”. Take “610 (LLAPTPYIIGV; listed as Homo sapiens) [compound 610]”: the Peptide exchange result is listed as “″+++″ (≥50% = +++)”. “474 (YLDPALELGPRNV; listed as Homo sapiens) [compound 474]”: the Peptide exchange entry is listed as “″+++″ (≥50% = +++)”. Take “172 (VLYSYTIITV; listed as Homo sapiens) [compound 172]”: the Peptide exchange entry is “″++″ (≥20% = ++)”. With “476 (ALMERTGYSMV; listed as Homo sapiens) [compound 476]”, the Peptide exchange result is on record as “″+++″ (≥50% = +++)”. The result for “358 (ALDEYTSEL; listed as Homo sapiens) [compound 358]” reads “″++++″ (≥75% = ++++)”; that for “592 (RLLSAAENFL; listed as Homo sapiens) [compound 592]”, “″+++″ (≥50% = +++)”; that for “192 (KMLDGASFTL; listed as Homo sapiens) [compound 192]”, “″+++″ (≥50% = +++)”. As to “239 (AAFAGKLLSV; listed as Homo sapiens) [compound 239]”, the Peptide exchange result is listed as “″+++″ (≥50% = +++)”. For “111 (YVWGFYPAEV; listed as Homo sapiens) [compound 111]” the value was “″+++″ (≥50% = +++)”; for “391 (YVYPQRLNFV; listed as Homo sapiens) [compound 391]”, “″+++″ (≥50% = +++)”; for “320 (KMFEFVEPLL; listed as Homo sapiens) [compound 320]”, “″++++″ (≥75% = ++++)”. The result for “222 (NLIENVQRL; listed as Homo sapiens) [compound 222]” reads “″++″ (≥20% = ++)”; that for “248 (FLFPNQYVDV; listed as Homo sapiens) [compound 248]”, “″+++″ (≥50% = +++)”.

For the substance “4 (GIMEHITKI; listed as Homo sapiens) [compound 4]”, the Peptide exchange result is listed as “″++++″ (≥75% = ++++)”. As to “479 (SLFGNSGILENV; listed as Homo sapiens) [compound 479]”, the Peptide exchange entry is on record as “″+++″ (≥50% = +++)”. With “64 (YAAPGGLIGV; listed as Homo sapiens) [compound 64]”, the Peptide exchange entry is “″++″ (≥20% = ++)”. Consider “330 (QLALKVEGV; listed as Homo sapiens) [compound 330]”, for which the Peptide exchange result is “″+++″ (≥50% = +++)”. The result for “227 (ALMNTLLYL; listed as Homo sapiens) [compound 227]” reads “″++″ (≥20% = ++)”.

For the substance “127 (KIGDEPPKV; listed as Homo sapiens) [compound 127]”, the Peptide exchange entry is recorded as “″++″ (≥20% = ++)”. “366 (RLLDMGETDLML; listed as Homo sapiens) [compound 366]”: the Peptide exchange result is reported as “″+++″ (≥50% = +++)”. With “273 (NLFQSVREV; listed as Homo sapiens) [compound 273]”, the Peptide exchange entry is reported as “″++″ (≥20% = ++)”.

With “276 (ALFTFSPLTV; listed as Homo sapiens) [compound 276]”, the Peptide exchange entry is “″+++″ (≥50% = +++)”.

As to “520 (LAVHPSGVAL; listed as Homo sapiens) [compound 520]”, the Peptide exchange result is recorded as “″+″ (≥10% = +)”.
